# Measured values reported in PMC2171531.
# pKd: −log10 of the molar value.
# Biological target: GST-syntaxin-1 (UniProt P32851)
# Assay: pull-down
# Sequence of GST-syntaxin-1 (P32851 1-265): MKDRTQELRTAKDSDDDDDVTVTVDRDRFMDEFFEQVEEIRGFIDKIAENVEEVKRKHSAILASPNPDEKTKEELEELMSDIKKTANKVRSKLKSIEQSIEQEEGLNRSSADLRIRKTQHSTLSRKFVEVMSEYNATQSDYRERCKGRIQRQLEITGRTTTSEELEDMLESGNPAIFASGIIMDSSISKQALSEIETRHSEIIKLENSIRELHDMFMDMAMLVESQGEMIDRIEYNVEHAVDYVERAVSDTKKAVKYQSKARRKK
Substance,amount bound in comparison with MBP-tomosyn [%],pKd,percent of the total input bound [%]
MBP-tomosyn-S724D (natural protein),35,,
MBP-tomosyn (nonphosphorylated form) (natural protein),,7.22,60
MBP-tomosyn phosphorylated by PKA (natural protein),,6.48,20
